Positions count from the first letter of the chain named.
T1: human CD276 protein (human, UniProt Q5ZPR3 29-534)
T1 construct: whole, on cells; for SKOV3 and the other cancer lines the protein is the cells' own; also called B7-H3; B7H3
T1 sequence (looked up): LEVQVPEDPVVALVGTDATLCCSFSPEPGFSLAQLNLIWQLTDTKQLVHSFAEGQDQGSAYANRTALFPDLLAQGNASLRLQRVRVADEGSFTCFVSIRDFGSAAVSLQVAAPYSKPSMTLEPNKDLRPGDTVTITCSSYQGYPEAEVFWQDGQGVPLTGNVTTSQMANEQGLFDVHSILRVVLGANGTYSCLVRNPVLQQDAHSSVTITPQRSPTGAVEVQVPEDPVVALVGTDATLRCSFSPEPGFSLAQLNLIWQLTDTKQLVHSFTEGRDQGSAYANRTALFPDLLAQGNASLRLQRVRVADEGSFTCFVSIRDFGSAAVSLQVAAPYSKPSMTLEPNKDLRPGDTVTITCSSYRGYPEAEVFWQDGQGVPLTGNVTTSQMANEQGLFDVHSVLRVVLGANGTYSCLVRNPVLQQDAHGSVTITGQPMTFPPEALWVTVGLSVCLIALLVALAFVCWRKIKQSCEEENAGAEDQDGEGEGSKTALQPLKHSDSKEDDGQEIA

T2: HUMAN B7H3 (Biacore analyte) (human, UniProt Q5ZPR3 29-461, limits assumed)
T2 construct: also called hB7H3
T2 sequence (looked up): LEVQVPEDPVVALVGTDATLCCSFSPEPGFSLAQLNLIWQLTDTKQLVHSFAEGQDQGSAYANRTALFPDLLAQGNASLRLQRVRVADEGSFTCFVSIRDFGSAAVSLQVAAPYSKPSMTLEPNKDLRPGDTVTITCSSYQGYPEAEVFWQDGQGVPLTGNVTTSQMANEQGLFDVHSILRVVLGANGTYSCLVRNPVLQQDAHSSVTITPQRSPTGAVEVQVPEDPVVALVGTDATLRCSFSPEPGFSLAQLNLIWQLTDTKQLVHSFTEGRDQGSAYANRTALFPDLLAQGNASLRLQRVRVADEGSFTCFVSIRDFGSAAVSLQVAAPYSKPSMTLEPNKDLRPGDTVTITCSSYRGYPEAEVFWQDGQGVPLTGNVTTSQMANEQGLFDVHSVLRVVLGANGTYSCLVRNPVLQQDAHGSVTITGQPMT

B1: hVH1-hVL5-30 (antibody, V domains shown)
VH: QVQLQESGPGLVKPSQTLSLTCTVSGYSITSDYAWNWIRQHPGKGLEWIGYISHSGSTSYNPSLKSRVTISRDTSKNQFSLKLSSVTAADTAVYYCARSLGRRWYFDVWGQGTTVTVSS
VL: DIVMTQSPLSLPVTPGEPASISCKSSQSLLNSSTQKNYLAWYLQKPGQSPQLLIYFASTRDSGVPDRFSGSGSGTDFTLKISRVEAEDLGVYFCQQHYIIPFTFGQGTKLEIK
B2: hVH3-hVL2-30 (antibody, V domains shown)
VH: B1 VH with Q16E, H41P
VL: DIVMTQSPDSLAVSLGERATINCKSSQSLLNSSTQKNYLAWYQQKPGQPPKLLIYFASTRDSGVPDRFSGSGSGTDFTLTISSLQAEDLAVYFCQQHYIIPFTFGQGTKLEIK
B3: hVH2-hVL1-30 (antibody, V domains shown)
VH: B1 VH with Q16E, H41P
VL: DIQMTQSPSSLSASVGDRVTITCKSSQSLLNSSTQKNYLAWYQQKPGKAPKLLIYFASTRDSGVPSRFSGSGSGTDFTLTISSLQPEDLATYFCQQHYIIPFTFGQGTKLEIK
B4: hVH4-hVL2-30 (antibody, V domains shown)
VH: B1 VH with T23A, S25Y, H41P
VL: B2 VL
B5: hVH3-hVL5-30 (antibody, V domains shown)
VH: B1 VH with Q16E, H41P
VL: B1 VL
B6: hVH4-hVL5-30 (antibody, V domains shown)
VH: B1 VH with T23A, S25Y, H41P
VL: B1 VL
B7: 7-E1-F8-F6 (human IgG1 chimeric antibody) (antibody, V domains shown)
VH: QVQLQQSGPELVKPGASVQMSCKASGYTFTDYVISWVNQRTGQGLEWIGEIYPRSGNTYYNEKFKGKATLTADKSSNTAYMQLSSLTSEDSAVYFCARFDIAYSFDYWGQGTTLTVSS
VL: DVVMTQTPLSLPVSLGDQASISCRSTQSLVHSNGVTYLHWYLQKPGQSPKLLIYKVSNRFSGVPDRFSGSGSGTDFTLKISRVEAEDLGVYFCSQGTHVPWTFGGGTKLEIK
notes: human IgG1 chimeric antibody of the mouse clone
B8: 16-C6-F7-F5 (human IgG1 chimeric antibody) (antibody, V domains shown)
VH: QIQLVQSGPEVKKPGETVKISCKASGYTFTKYGINWVKQAPGEGLKWMGWIWTYTGKPTYGDDFKGRFAFSLETSASTAYLQISDLKIEDMATYFCARDDGYYYTMNYWGQGTSVTVSS
VL: B7 VL with V2I, T26S, V30L, S32T, V35D, P45A, S48P, G96S, V99I
notes: as for B7
B9: 15-C8-B5-G7 (human IgG1 chimeric antibody) (antibody, V domains shown)
VH: QVQLQQPGAELVKPGASVKLSCKASDYTFTSHWMHWVKQRPGQGLEWIGMIHPNSGTTHYNENFKNKATLTVDNSSSTAYMQLSSLTSEDSAVYYCAWGSSNSYFYAMAYWGQGTSVTVSS
VL: QAVVTQESALTTSPGETVTLTCRSSTGAVTTSNYANWVQEKPAHLFTGLIGGTNNRAPGVPARFSGSLIGDKAALTITGAQTEDEAIYFCALWFSNHLVFGGGTKLTVL
notes: as for B7
B10: 6-D8-E7-A11 (human IgG1 chimeric antibody) (antibody, V domains shown)
VH: QVHLQQPGAELVKPGASVKLSCKASGYTFTNYWMHWVKRRPGQGLEWIGMIHPNSGTTSFNEKFKSKATLTVDKSSSTAYMQLSSLTSEDSAVYYCAGYYGSSFSWFTYWGQGTLVTVSA
VL: QAVVTQESALTTSPGGTVILTCRSSTGAVTTSNFANWVQEKPDHLFTGLIGGTSNRAPGVPVRFSGSLIGDKAALTITGAQTEDDAMYFCALWYSTHYVFGGGTKVTVL
notes: as for B7
B11: 18-F9-D8-G7 (human IgG1 chimeric antibody) (antibody, V domains shown)
VH: EVQLQQSGPELVRPGVSVKISCKGSGYTFTDYAMHWVKQSHAQSLEWIGIINTYSGDTNYNQKFKGKATMTVDKSSSTAYMGLARLTSEDSAIFYCARGGGNYPYWYFDVWGAGTTVTVSS
VL: ENVLTQSPAIMSASPGEKVTMTCRASSSVSSSYLHWYQQKSGDSPKLWIYSTSNLASGVPARFSGSGSGTSYSLTISSVEAEDAATYYCQQFSVYPLTFGAGTKLEIK
notes: as for B7
B12: 25-C8-D7-C5 (human IgG1 chimeric antibody) (antibody, V domains shown)
VH: EVQLQESGGGLVKPGGSLKFSCAASGFTFSTYAMSWVRQTPEKRLEWVATISGGGIDTYYPDSVKGRFTISRDNAKNTLYLQMNSLRSEDTAMYYCARQGSKGWGAMDYWGQGTSVTVSS
VL: QIVLTQSPAIMSASPGEKVTMTCRASSSVSFMHWYQQKSGTSPKRWIYETSKLASGVPDRFSGSGSGTSYSLTISSMEAEDAATYYCQQWSSNPLTFGAGTKLELK
notes: as for B7
B13: mVH-mVL1-30 (antibody, V domains shown)
VH: EVQLVESGPGLVKPSQSLSLTCTVTGYSITSDYAWNWIRQFPGNKLEWMGYISHSGSTSYNPSLKSRISITRDTSKNQFFLQLNSVTTEDTATYYCARSLGRRWYFDVWGAGTTVTVSS
VL: DIVMTQSPSSLAMSVGQKVTLSCKSSQSLLQSSTQKNYLAWYQQKPGQSPKLLVYFASTRDSGVPDRFIGSGSGTEFTLTISSVQAEDLADYFCQQHYIIPFTFGAGTKLEIK
B14: 25-D3-G4-C6 (human IgG1 chimeric antibody) (antibody, V domains shown)
VH: EIQLQQTGPELVKPGASVKISCKASGYSFTDYIILWVKQSHGMSLEWIGNINPYYNSTYYNLKFKGKATLTVDKSSSTAYMQLDSLTSEDSAVYYCARDSFDWYFGVWGAGTTVTVSS
VL: DVVMTQTPLSLPVSLGDQASISCRSSQSLVHSNGNTYLHWYLQKPGQSPKLLIYKVSNRFSGVPDRFSGSGSGTDFTLKISRVETEDLGIYFCSQSTHVPPLTFGAGTKLELK
notes: as for B7

How the values were obtained:
human CD276 protein [1] = molecular target: T1, human CD276 protein; assay: FACS titration on SKOV3 cells (MFI against Conc. (nM)); unit taken from the concentration axis
human CD276 protein [2] = molecular target: T1, human CD276 protein; assay: cell-based or functional assay
human CD276 protein [3] = molecular target: T1, human CD276 protein; assay: cell-based or functional assay; remark: listed apart in the source
human CD276 protein [4] = molecular target: T1, human CD276 protein; assay: cell-based or functional assay; remark: listed apart in the source
[5] = molecular target: T2, HUMAN B7H3 (Biacore analyte); assay: SPR, Biacore 8K, antibody captured, B7H3 as analyte, 1:1 binding
human CD276 protein [6] = molecular target: T1, human CD276 protein; assay: FACS on SKOV3 cells
Method in brief: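 Human IgG1 chimeric antibodies were tested for binding to trypsin-detached SKOV3 ovarian cancer cells by flow cytometry, with cells washed in FACS buffer and kept in the dark before acquisition. Titration read-out was MFI plotted against antibody concentration (nM).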

Binder	EC50 (human CD276 protein [1]) [nM]	EC50 of antibody induced CDC effect (human CD276 protein [2]) [nM]	Top cytotoxicity (%), CDC (human CD276 protein [2]) [%]	IC50 of indirect ADC cytotoxicity on SKOV3 (human CD276 protein [3]) [nM]	EC50 of antibody induced ADCC effect on SKOV3 (human CD276 protein [4]) [µg/mL]	Kd [5] [nM]	koff [5] [s⁻¹]	kon [5] [M⁻¹ s⁻¹]	EC50 (human CD276 protein [6]) [µg/mL]	MFI (Max) (human CD276 protein [6])
B1	11.3									
B2	5.93									
B3	9.51									
B4	9.77									
B5	6.37									
B6	8.52									
B7		1.69	91.9	0.028	0.0177	0.855	0.000222	260000	0.982	3380
B8		1.28	92.1	0.009	0.00664	0.645	0.000243	377000	0.186	5350
B9		7.54	86.1	0.008	0.697	0.399	0.000196	492000	0.293	2140
B10		1.57	92.5	0.008	0.0668	0.749	0.000348	464000	0.402	2830
B11		2.44	70.3	0.014	0.503	0.489	0.000239	489000	0.286	4610
B12		2.42	91.4	0.018	0.123	1.2	0.000243	203000	2.03	3480
B13	9.64									
B14		2.41	89.7	0.023	0.0372	2.31	0.00025	108000	1.27	3450

— patent US20240400689A1 (ANTENGENE BIOLOGICS, published 2024)
